Test results: patent publication US20090142806A1 (Pfizer, published 2009)

Tests used:
human IL-17RC-Ig = molecular target: T1, human IL-17RC-Ig (human); experiment: ELISA, IL-17RC-Ig coated at 1.5 µg/ml, serial dilutions of biotin-conjugated IL-17F
T1 construct: also called IL-17RC-IgG; IL-17RC-Ig fusion protein
Description: (§1) After washing, saturating concentrations of avidin-horseradish peroxidase (HRP) were added, and plates were incubated for an additional 1 h at RT. Unbound avidin-HRP was washed using PBS/1% BSA, and the ELISA was developed using TBM.

human IL-17R-Ig = molecular target: T2, human IL-17R-Ig (human); experiment: ELISA, IL-17R-Ig coated at 1.5 µg/ml, serial dilutions of biotin-conjugated IL-17F
T2 construct: also called IL-17R-IgG; IL-17R-Ig fusion protein
T2 sequence (chain, as listed by the source limits assumed): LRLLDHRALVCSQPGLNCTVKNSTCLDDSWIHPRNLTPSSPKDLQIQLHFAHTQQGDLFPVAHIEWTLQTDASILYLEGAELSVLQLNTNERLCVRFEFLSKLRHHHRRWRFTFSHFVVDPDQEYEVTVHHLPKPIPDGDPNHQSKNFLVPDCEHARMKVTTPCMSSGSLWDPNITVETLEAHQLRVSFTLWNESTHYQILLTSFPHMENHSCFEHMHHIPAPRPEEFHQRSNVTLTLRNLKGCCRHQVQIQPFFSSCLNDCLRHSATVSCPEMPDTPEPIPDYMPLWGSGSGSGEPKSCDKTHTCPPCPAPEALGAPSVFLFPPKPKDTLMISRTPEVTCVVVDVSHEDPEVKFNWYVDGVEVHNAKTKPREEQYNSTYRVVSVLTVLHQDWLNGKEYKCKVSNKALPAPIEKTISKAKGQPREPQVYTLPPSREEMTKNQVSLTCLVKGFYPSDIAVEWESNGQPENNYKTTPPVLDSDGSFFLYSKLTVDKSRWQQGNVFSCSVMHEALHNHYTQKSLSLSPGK
Description: as §1

T1 sequence (chain, as listed by the source limits assumed): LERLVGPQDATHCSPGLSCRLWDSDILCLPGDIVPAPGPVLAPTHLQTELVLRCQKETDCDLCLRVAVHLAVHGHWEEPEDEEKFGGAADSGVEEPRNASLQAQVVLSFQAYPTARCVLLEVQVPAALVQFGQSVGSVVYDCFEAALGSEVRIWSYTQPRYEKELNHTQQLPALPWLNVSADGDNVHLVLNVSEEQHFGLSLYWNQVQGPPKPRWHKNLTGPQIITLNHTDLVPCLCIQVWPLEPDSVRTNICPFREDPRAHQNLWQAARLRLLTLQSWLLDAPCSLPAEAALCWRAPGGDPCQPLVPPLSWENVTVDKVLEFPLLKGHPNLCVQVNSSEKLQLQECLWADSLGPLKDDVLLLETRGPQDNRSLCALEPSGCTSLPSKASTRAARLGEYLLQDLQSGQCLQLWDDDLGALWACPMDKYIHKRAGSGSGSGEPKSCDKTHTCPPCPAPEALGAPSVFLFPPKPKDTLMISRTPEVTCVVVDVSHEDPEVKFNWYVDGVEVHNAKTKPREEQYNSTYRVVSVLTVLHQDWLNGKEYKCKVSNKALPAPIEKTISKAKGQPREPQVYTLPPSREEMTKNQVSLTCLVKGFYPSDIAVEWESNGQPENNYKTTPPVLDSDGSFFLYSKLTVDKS

EC50 (human IL-17RC-Ig): 15 µg/mL
EC50 (human IL-17R-Ig): 1.23 µg/mL
B1: human IL-17F (IL-17F homodimer) (ligand)
chain: RKIPKVGHTFFQKPESCPPVPGGSMKLDIGIINENQRVSMSRNIESRSTSPWNYTVTWDPNRYPSEVVQAQCRNLGCINAQGKEDISMNSVPIQQETLVVRRKHQGCSVSFQLEKVLVTVGCTCVTPVIHHVQ
modifications: biotin-conjugated in the receptor-binding and inhibition ELISAs (sites not given)
notes: Used as purified protein, as recombinant conditioned media (293, COS) and as natural protein from T cell conditioned media; also called IL-17F/F; interleukin-17F
